Consider five sequences from the supplement of paper PMC5998384.

The test system of data set [1] is HeLa Kyoto. Briefly: melting temperature (median over replicates), in situ; higher = more thermally stable.
Data set [2] deals with HeLa Kyoto. The data set can be described thus: solubility change mitosis vs G1/S (difference of NP-40 vs SDS log2 ratios) (log2 ratio difference); higher = more soluble in mitosis.
Data set [3] relates to HeLa Kyoto. The data set can be described thus: solubility in G1/S (NP-40 vs SDS abundance) (log2 ratio); higher = more soluble. To be noted: cell cycle stage: G1/S.
The subject of data set [4] is HeLa Kyoto. Briefly: thermal stability score vs G1/S (z-score of summed log2 fold changes over temperatures); higher = more thermally stable than in G1/S.
[5] abbreviates: cell cycle stage: early G1 (4.5 h after nocodazole release).
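Wherever melting temperature (median over replicates), in situ is given: HeLa Kyoto cells synchronized by double thymidine or nocodazole block, proteins quantified by TMT10plex mass spectrometry, three independent biological replicates.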
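Wherever solubility change mitosis vs G1/S (difference of NP-40 vs SDS log2 ratios) is given: synchronized HeLa Kyoto cells (double thymidine block for G1/S, nocodazole release for mitosis), protein amounts in NP-40 versus SDS lysates quantified by mass spectrometry, three biological replicates.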
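Wherever solubility in G1/S (NP-40 vs SDS abundance) is given: HeLa Kyoto cells arrested at G1/S by double thymidine block, proteins quantified by TMT10plex mass spectrometry in mild NP-40 versus SDS extracts, three biological replicates.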
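Wherever thermal stability score vs G1/S (z-score of summed log2 fold changes over temperatures) is given: synchronized HeLa Kyoto cells, proteins quantified by TMT10plex mass spectrometry, three biological replicates, mitosis taken 0.5 h after nocodazole release, G1/S directly after double thymidine block.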

Consider “MEATGVLPFVRGVDLSGNDFKGGYFPENVKAMTSLRWLKLNRTGLCYLPEELAALQKLEHLSVSHNNLTTLHGELSSLPSLRAIVARANSLKNSGVPDDIFKLDDLSVLDLSHNQLTECPRELENAKNMLVLNLSHNSIDTIPNQLFINLTDLLYLDLSENRLESLPPQMRRLVHLQTLVLNGNPLLHAQLRQLPAMTALQTLHLRSTQRTQSNLPTSLEGLSNLADVDLSCNDLTRVPECLYTLPSLRRLNLSSNQITELSLCIDQWVHVETLNLSRNQLTSLPSAICKLSKLKKLYLNSNKLDFDGLPSGIGKLTNLEEFMAANNNLELVPESLCRCPKLRKLVLNKNHLVTLPEAIHFLTEIEVLDVRENPNLVMPPKPADRAAEWYNIDFSLQNQLRLAGASPATVAAAAAAGSGPKDPMARKMRLRRRKDSAQDDQAKQVLKGMSDVAQEKNKKQEESADARAPSGKVRRWDQGLEKPRLDYSEFFTEDVGQLPGLTIWQIENFVPVLVEEAFHGKFYEADCYIVLKTFLDDSGSLNWEIYYWIGGEATLDKKACSAIHAVNLRNYLGAECRTVREEMGDESEEFLQVFDNDISYIEGGTASGFYTVEDTHYVTRMYRVYGKKNIKLEPVPLKGTSLDPRFVFLLDRGLDIYVWRGAQATLSSTTKARLFAEKINKNERKGKAEITLLVQGQELPEFWEALGGEPSEIKKHVPEDFWPPQPKLYKVGLGLGYLELPQINYKLSVEHKQRPKVELMPRMRLLQSLLDTRCVYILDCWSDVFIWLGRKSPRLVRAAALKLGQELCGMLHRPRHATVSRSLEGTEAQVFKAKFKNWDDVLTVDYTRNAEAVLQSPGLSGKVKRDAEKKDQMKADLTALFLPRQPPMSLAEAEQLMEEWNEDLDGMEGFVLEGKKFARLPEEEFGHFYTQDCYVFLCRYWVPVEYEEEEKKEDKEEKAEGKEGEEATAEAEEKQPEEDFQCIVYFWQGREASNMGWLTFTFSLQKKFESLFPGKLEVVRMTQQQENPKFLSHFKRKFIIHRGKRKAVQGAQQPSLYQIRTNGSALCTRCIQINTDSSLLNSEFCFILKVPFESEDNQGIVYAWVGRASDPDEAKLAEDILNTMFDTSYSKQVINEGEEPENFFWVGIGAQKPYDDDAEYMKHTRLFRCSNEKGYFAVTEKCSDFCQDDLADDDIMLLDNGQEVYMWVGTQTSQVEIKLSLKACQVYIQHMRSKEHERPRRLRLVRKGNEQHAFTRCFHAWSAFCKALA [FLII]”, for which the melting temperature in the data set with HeLa Kyoto [1] (cell cycle stage: G1/S) and in the data set on HeLa Kyoto [1] (cell cycle stage: mitosis) was 49.5 °C each time. Further, in the data set on HeLa Kyoto [2], the “solubility change mitosis (log2)” value was -0.0947. The “solubility in G1/S (log2)” value in the data set on HeLa Kyoto [3] is -0.172. Besides, the thermal stability score with HeLa Kyoto [4] (setting [5]) is -0.0623; with HeLa Kyoto [4] (cell cycle stage: mitosis) it was 0.353.
As to “MDGEEKTYGGCEGPDAMYVKLISSDGHEFIVKREHALTSGTIKAMLSGPGQFAENETNEVNFREIPSHVLSKVCMYFTYKVRYTNSSTEIPEFPIAPEIALELLMAANFLDC [TCEB1]”, the melting temperature was found to be 52.2 °C in the data set with HeLa Kyoto [1] (cell cycle stage: G1/S) and 52.3 °C with HeLa Kyoto [1] (cell cycle stage: mitosis). Also, the “solubility change mitosis (log2)” value in the data set with HeLa Kyoto [2] is -0.0906. Moreover, the “solubility in G1/S (log2)” value with HeLa Kyoto [3] was 0.256. In addition, the thermal stability score in the data set on HeLa Kyoto [4] (setting [5]) is -1.38; in the data set with HeLa Kyoto [4] (cell cycle stage: mitosis), -1.62.
Regarding “MAESIIIRVQSPDGVKRITATKRETAATFLKKVAKEFGFQNNGFSVYINRNKTGEITASSNKSLNLLKIKHGDLLFLFPSSLAGPSSEMETSVPPGFKVFGAPNVVEDEIDQYLSKQDGKIYRSRDPQLCRHGPLGKCVHCVPLEPFDEDYLNHLEPPVKHMSFHAYIRKLTGGADKGKFVALENISCKIKSGCEGHLPWPNGICTKCQPSAITLNRQKYRHVDNIMFENHTVADRFLDFWRKTGNQHFGYLYGRYTEHKDIPLGIRAEVAAIYEPPQIGTQNSLELLEDPKAEVVDEIAAKLGLRKVGWIFTDLVSEDTRKGTVRYSRNKDTYFLSSEECITAGDFQNKHPNMCRLSPDGHFGSKFVTAVATGGPDNQVHFEGYQVSNQCMALVRDECLLPCKDAPELGYAKESSSEQYVPDVFYKDVDKFGNEITQLARPLPVEYLIIDITTTFPKDPVYTFSISQNPFPIENRDVLGETQDFHSLATYLSQNTSSVFLDTISDFHLLLFLVTNEVMPLQDSISLLLEAVRTRNEELAQTWKRSEQWATIEQLCSTVGGQLPGLHEYGAVGGSTHTATAAMWACQHCTFMNQPGTGHCEMCSLPRT [NPLOC4]”, the melting temperature in the data set with HeLa Kyoto [1] (cell cycle stage: G1/S) turned out to be 51.8 °C; in the data set with HeLa Kyoto [1] (cell cycle stage: mitosis), 52 °C. Further, the “solubility change mitosis (log2)” value in the data set on HeLa Kyoto [2] was -0.119. Also, in the data set on HeLa Kyoto [3], the “solubility in G1/S (log2)” value is -0.00908. Besides, the thermal stability score in the data set with HeLa Kyoto [4] (setting [5]) is 0.478; in the data set with HeLa Kyoto [4] (cell cycle stage: mitosis), -0.273.
With “MPSLLVLTFSPCVLLGWALLAGGTGGGGVGGGGGGAGIGGGRQEREALPPQKIEVLVLLPQDDSYLFSLTRVRPAIEYALRSVEGNGTGRRLLPPGTRFQVAYEDSDCGNRALFSLVDRVAAARGAKPDLILGPVCEYAAAPVARLASHWDLPMLSAGALAAGFQHKDSEYSHLTRVAPAYAKMGEMMLALFRHHHWSRAALVYSDDKLERNCYFTLEGVHEVFQEEGLHTSIYSFDETKDLDLEDIVRNIQASERVVIMCASSDTIRSIMLVAHRHGMTSGDYAFFNIELFNSSSYGDGSWKRGDKHDFEAKQAYSSLQTVTLLRTVKPEFEKFSMEVKSSVEKQGLNMEDYVNMFVEGFHDAILLYVLALHEVLRAGYSKKDGGKIIQQTWNRTFEGIAGQVSIDANGDRYGDFSVIAMTDVEAGTQEVIGDYFGKEGRFEMRPNVKYPWGPLKLRIDENRIVEHTNSSPCKSSGGLEESAVTGIVVGALLGAGLLMAFYFFRKKYRITIERRTQQEESNLGKHRELREDSIRSHFSVA [NPR3]”, the melting temperature with HeLa Kyoto [1] (cell cycle stage: G1/S) amounted to 53.9 °C; in the data set with HeLa Kyoto [1] (cell cycle stage: mitosis), 54.4 °C. Further, the “solubility change mitosis (log2)” value in the data set with HeLa Kyoto [2] was -0.0686. In addition, the “solubility in G1/S (log2)” value in the data set with HeLa Kyoto [3] amounted to 0.0598. The values for the thermal stability score in the data set with HeLa Kyoto [4] (setting [5]) and in the data set with HeLa Kyoto [4] (cell cycle stage: mitosis) were -4.69 and -4.35, respectively.
Take “MSWESGAGPGLGSQGMDLVWSAWYGKCVKGKGSLPLSAHGIVVAWLSRAEWDQVTVYLFCDDHKLQRYALNRITVWRSRSGNELPLAVASTADLIRCKLLDVTGGLGTDELRLLYGMALVRFVNLISERKTKFAKVPLKCLAQEVNIPDWIVDLRHELTHKKMPHINDCRRGCYFVLDWLQKTYWCRQLENSLRETWELEEFREGIEEEDQEEDKNIVVDDITEQKPEPQDDGKSTESDVKADGDSKGSEEVDSHCKKALSHKELYERARELLVSYEEEQFTVLEKFRYLPKAIKAWNNPSPRVECVLAELKGVTCENREAVLDAFLDDGFLVPTFEQLAALQIEYEDGQTEVQRGEGTDPKSHKNVDLNDVLVPKPFSQFWQPLLRGLHSQNFTQALLERMLSELPALGISGIRPTYILRWTVELIVANTKTGRNARRFSAGQWEARRGWRLFNCSASLDWPRMVESCLGSPCWASPQLLRIIFKAMGQGLPDEEQEKLLRICSIYTQSGENSLVQEGSEASPIGKSPYTLDSLYWSVKPASSSFGSEAKAQQQEEQGSVNDVKEEEKEEKEVLPDQVEEEEENDDQEEEEEDEDDEDDEEEDRMEVGPFSTGQESPTAENARLLAQKRGALQGSAWQVSSEDVRWDTFPLGRMPGQTEDPAELMLENYDTMYLLDQPVLEQRLEPSTCKTDTLGLSCGVGSGNCSNSSSSNFEGLLWSQGQLHGLKTGLQLF [LAS1L]”: the melting temperature in the data set with HeLa Kyoto [1] (cell cycle stage: G1/S) worked out at 49.7 °C; with HeLa Kyoto [1] (cell cycle stage: mitosis) it was 51 °C. Moreover, the “solubility change mitosis (log2)” value in the data set with HeLa Kyoto [2] was determined as 0.658. Moreover, the “solubility in G1/S (log2)” value in the data set on HeLa Kyoto [3] was -1.4. The thermal stability score was determined as 1.98 in the data set on HeLa Kyoto [4] (setting [5]) and 2.81 in the data set on HeLa Kyoto [4] (cell cycle stage: mitosis).
